T1: human ALPPL2 (recombinant protein) (human, UniProt P10696 20-503)
T1 chain: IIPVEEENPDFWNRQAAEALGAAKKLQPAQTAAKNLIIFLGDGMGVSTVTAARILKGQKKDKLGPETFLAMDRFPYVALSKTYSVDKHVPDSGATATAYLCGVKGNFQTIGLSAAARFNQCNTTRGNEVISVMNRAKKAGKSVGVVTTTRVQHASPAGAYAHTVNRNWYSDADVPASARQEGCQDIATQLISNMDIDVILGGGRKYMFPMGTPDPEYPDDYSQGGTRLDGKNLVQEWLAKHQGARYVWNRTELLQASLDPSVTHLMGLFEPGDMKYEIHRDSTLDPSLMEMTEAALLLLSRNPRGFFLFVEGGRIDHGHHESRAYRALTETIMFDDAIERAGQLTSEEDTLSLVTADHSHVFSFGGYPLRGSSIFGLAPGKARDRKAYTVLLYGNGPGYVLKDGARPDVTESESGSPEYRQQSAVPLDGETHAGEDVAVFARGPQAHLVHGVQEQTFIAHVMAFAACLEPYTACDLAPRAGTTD

T2: ALPI (screening and SPR/ELISA protein) (UniProt P09923 20-503, limits assumed)
T2 sequence (looked up): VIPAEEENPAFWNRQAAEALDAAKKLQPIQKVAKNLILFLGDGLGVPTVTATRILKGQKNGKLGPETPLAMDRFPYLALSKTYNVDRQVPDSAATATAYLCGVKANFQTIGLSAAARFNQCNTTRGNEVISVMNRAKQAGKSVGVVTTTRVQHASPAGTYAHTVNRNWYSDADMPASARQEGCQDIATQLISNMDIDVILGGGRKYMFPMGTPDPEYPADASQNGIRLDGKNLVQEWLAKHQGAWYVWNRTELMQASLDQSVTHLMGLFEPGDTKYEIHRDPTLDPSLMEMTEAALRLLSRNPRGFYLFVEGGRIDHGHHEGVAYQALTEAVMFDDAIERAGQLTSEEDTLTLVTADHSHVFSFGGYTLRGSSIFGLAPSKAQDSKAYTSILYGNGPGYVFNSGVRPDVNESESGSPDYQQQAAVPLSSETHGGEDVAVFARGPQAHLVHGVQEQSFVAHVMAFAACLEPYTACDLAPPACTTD


Experiments:
[1] = molecular target: T1, human ALPPL2 (recombinant protein); assay: BLI; single concentration
[2] = molecular target: T3, human ALPPL2 (recombinant protein) (human, UniProt P10696 20-503, limits assumed); assay: screen of rabbit B-cell clones by ELISA and FACS
T3 construct: biotinylated where captured on streptavidin
Description: (§1) Specific clones were screened and identified by ELISA and high throughput flow cytometry (FIG. 3). Rabbit kidney cells were transfected with either truncated (for ELISA screen) or full-length (for FACS screen) ALPI and ALPPL2.

[3] = molecular target: T2, ALPI (screening and SPR/ELISA protein); assay: screen of rabbit B-cell clones by ELISA and FACS
Description: as §1

| Kd [1] [pM] | binding result [2] | binding result [3] | Binder |
| --- | --- | --- | --- |
| 8000 | binds | no binding | AB2C131 (antibody, V domains shown, Rabbit antibody cloned from a single B cell) VH: QSLEESGGGLVQPEGSLTLTCTASGFSFSSSYYMCWVRQAPGKGLEWIACIYAGSTFSTYYASWAKGRFTISKTSSTTVTLQMTSLTAADTATYFCARSDSYYTYGYAGYAYAIFNLWGPGTLVTVSS VL: LVMTQTPSSVSAAVGGTVTINCQASESIYSNLAWYQQKPGQPPKLLIYLASTLASGVPSRFKGSGSGTEFTLTISDLECADAATYYCQSAYYSSSADIAFGGGTEVVVK |
| 800 | binds | no binding | AB1C12 (antibody, V domains shown, Rabbit antibody cloned from a single B cell) VH: QSLEESGGDLVKPGASLTLTCTASGFSFSSSYWISWVRQAPGKGLEWIACIAIGSSGTTYYASWAKGRFTISKTSSTTVTLQMTSLTAADTATYFCARSGDGYTYVELWGPGTLVTVSS VL: DVVMTQTPASVSEPVGGTVTIKCQASQSISSYLAWYQQKPGQPPKLLIYRASTLASGVPSRFKGSGSGTQFTLTISDLECADAATYYCQNYYDIDDSDNTFGGGTEVVVK |
| 1690 | binds | no binding | AB1C19 (antibody, V domains shown, Rabbit antibody cloned from a single B cell) VH: QSLEESGGDLVQPEGSLTLTCKASGFDFSTNIMCWVRQAPGKGLEWIACIYAGDGSTYYASWVNGRFTISKTSSTTVTLQMTSLTAADTATYFCARASTYWNYGYAGYGYYPGYFNLWGPGTLVTVSS VL: DIVMTQTPASVEAAVGGTVTIKCQASQSIISALAWYQQKPGQPPKLLIYAASTLASGVPSRFKGSGSGTQFTLTISDLECADAATYYCQTYAYSTKSNYGSVFGGGTEVVVK |
| 500 | binds | no binding | AB2C102 (antibody, V domains shown, Rabbit antibody cloned from a single B cell) VH: QQQLEESGGDLVQPGASLTLTCTASGFSFNSNYWMCWGRQAPGKGLEWIGCILFGNTDTYYANWAKGRFTISKTSSTTVTLQMTSLTAADTATYFCARSVSGVGSAWNLWGPGTLVTVSS VL: IVMTQTPSSKSVPVGDTVTINCQASESVYNNNHLAWYQQKPGQSPKLLIYLASILDSGVPSRFKGSGSGTQFTLTISDVVCDDAATYYCAGYKGITIDGSAFGGGTELVVK |
| 1000 | binds | no binding | AB2C133 (antibody, V domains shown, Rabbit antibody cloned from a single B cell) VH: QSLEESGGDLVKPGASLTLTCTASGLDFSSSYWICWVRQAPGKGLEWIGCIKTATETTVYASWAKGRFTISKTSSTTVTLQMTSLTAADTATYLCAKTYADNGGYINLWGPGTLVTVSS VL: LVMTQTPSSVSAAVGGTVTINCQASQNIYNNLAWYQQKPGQRPKLLIYGASNLESGVPSRFKGSGSGTEYTLTISDLECDDAATYYCQSADLTSSINVFGGGTEVVVK |
| 1700 | binds | no binding | AB2C127 (antibody, V domains shown, Rabbit antibody cloned from a single B cell) VH: QSLEESGGDLVKPGASLTLTCTASGFSFNSYYMCWVRQAPGKGLEWIACISGGSSDNTYYASWAKGRFTTSKTSSTTVTLQMTSLTAADTATYFCARDIPRSGYFGCDLWGPGTLVTVSS VL: VVMTQTPASVSEPVGGTVTIKCQASQNIYSNLAWYQQKPGQRPKLLIYGASNLESGVPSRFKGSGSGTEYTLTISNLECADAATYYCQSTVYNSNYANTFGGGTEVVVK |
| 200 | binds | no binding | AB1C29 (antibody, V domains shown, Rabbit antibody cloned from a single B cell) VH: QEHLEESGGGLVKPEGSLTLTCTASGFSFSSSYYMCWVRQAPGKGLEWIACIYPDDGNTYYASWAKGRFTISKTSSTTVTLQMTSLTAADTATYFCARALAYYAYVDGGHSYAINDFDLWGPGTLVTVSS VL: QVLTQTPSSVSAAVGGTVTINCQSSQSVFSNDYFSWYQQKPGQPPKLLIYDASRLASGVPSRFKGSGSGTQFTLTISGVQCDDAATYYCQGTYYSSAWYNAFGGGTEVVVK |
| 1600 | binds | no binding | AB2C124 (antibody, V domains shown, Rabbit antibody cloned from a single B cell) VH: QEQLVESGGGLVQPEGSLTLTCTASGFSFSSSYFMCWVRQAPGKGLEWIACIYTGDGNNYYASWAKGRFTISKTSSTTVTLQMTSLTAADTATYFCSRGGSYYAYGYAGYDYYPDAFDYWGPGTLVTVSS VL: DIVMTQTPASVEVAVGGTVTIKCQASQSISSYLSWYQQKPGQPPKLLIYRASTLASGVPSRFKGSGSGTQFTLTISDLECADAATYYCQSYYYSSSGSYGFGGGTEVVVK |
| 100 | binds | no binding | AB2C136 (antibody, V domains shown, Rabbit antibody cloned from a single B cell) VH: QEQLEESGGDLVKPGASLTLTCTASGFSFNSNYYMCWVRQAPGKGLEWIACIYTGIVVPTYYASWAKGRFTISKTSSTTVTLQMTSLTAADTATYFCARDPYVGSSYIYNLWGPGTLVTVSS VL: LVMTQTPSPVSAAVGSTVTISCQSSQSVYNNNNLAWYQQKPGQPPKLLIYSASSLASGVPSRFKGSGSGTQFTLTISGVECDDAATYYCAGYKTYSNNENAFGGGTEVVVK |
| 150 | binds | no binding | AB1C10 (antibody, V domains shown, Rabbit antibody cloned from a single B cell) VH: QSLEESGGDLVKPGASLTLTCTASGFDFSSNGMCWVRQAPGKGLEWIACIYVDSSDNTNYASWVNGRFTISRTSSTTVTLQMTSLTAADTATYFCARGYGYVGSAMDLWGQGTLVTVSS VL: DIVMTQTPASVEAAVGGTVTIKCQASQSINNELSWYQQKPGQRPKLLIYGASTLESGVPSRFSGSGSGTEFTLTISDLECADAATYYCQSAYYSSSSSYANTFGGGTEVVVK |
| 400 | binds | no binding | AB1C31 (antibody, V domains shown, Rabbit antibody cloned from a single B cell) VH: QSLEESGGDLVKPGASLTLTCTASGFDFSSNGMCWVRQAPGKGLEWIACIYVDSSDNTNYASWVNGRFTISRTSSTTVDLKMTSLTAADTATYFCARGYGYVGSAMDLWGQGTLVTVSS VL: DIVMTQTPASVEAAVGGTVTIKCQASQSISNELSWYQQKPGQRPKLLIYGASTLESGVPSRFSGSGSGTEFTLTISDLECADAATYYCQSAYYSSSSSYANTFGGGTEVVVK |
| 1400 | binds | no binding | AB1C25 (antibody, V domains shown, Rabbit antibody cloned from a single B cell) VH: QSLEESGGDLVKPGASLTLTCTASGFDFSSNGMCWVRQAPGKGLEWIACIYVDSSDSTYYASWVNGRFTISRTSSTTVTLQMTSLTAADTATYFCARGYGYVGSAMDLWGQGTLVTVSS VL: DIVMTQTPASVEAAVGGTVTIKCQASQSISNELSWYQQKPGQRPKLLIYGASTLESGVPSRFSGSGSGTEFTLTISDLECADAATYYCQSAYYSSSSSYANTFGGGTEVVAA |
| 1 | binds | no binding | AB2C129 (antibody, V domains shown, Rabbit antibody cloned from a single B cell) VH: QSLEESGGDLVKPGASLTLTCTASGFSFSSSYWICWVRQAPGKGLEWIACIYAGSSGDTYYASWAKGRFTISKTSSTTVTLQTTSLTAADTATYFCARAEYIDGYADYTYTTLYYFDLWGPGTPVTVSS VL: DVVMTQTPASVSEPVGGTVTINCQASESINSWLAWYQQKPGQPPKLLIYSASTLASGVPSRFKGSGSGIEFTLTISDLECADAATYFCQSYYSFSRFAFGGGTEVVVK |
